Test results: patent US20020127673A1 (REGENTS OF THE UNIVERSITY OF MICHIGAN, published 2002)
Values belong to the binder of their own block, whether it stands above or below them.

Legend:
HA-tagged wild-type Nod2 = target: T1, HA-tagged wild-type Nod2 (human, UniProt Q9HC29 1-1040); test: co-immunoprecipitation from co-transfected HEK293T cells
T1 construct: Expressed by transfection in HEK293T cells and tested in cell lysates; also called wt Nod2; pcDNA3-Nod2-HA; not shown: HA tag
Text: The CARD motif functions as an effector domain that mediates specific homophilic interaction with downstream CARD-containing molecules (Hofmann et al., Trends Biochem. Sci. 22: 155-156 [1997]).

[1] = target: the molecule itself; test: not described ('our observations')

- binding result (HA-tagged wild-type Nod2): no binding
B1: caspase-4 (enzyme, UniProt P49662 1-377, looked up)
chain: MAEGNHRKKPLKVLESLGKDFLTGVLDNLVEQNVLNWKEEEKKKYYDAKTEDKVRVMADSMQEKQRMAGQMLLQTFFNIDQISPNKKAHPNMEAGPPESGESTDALKLCPHEEFLRLCKERAEEIYPIKERNNRTRLALIICNTEFDHLPPRNGADFDITGMKELLEGLDYSVDVEENLTARDMESALRAFATRPEHKSSDSTFLVLMSHGILEGICGTVHDEKKPDVLLYDTIFQIFNNRNCLSLKDKPKVIIVQACRGANRGELWVRDSPASLEVASSQSSENLEEDAVYKTHVEKDFIAFCSSTPHNVSWRDSTMGSIFITQLITCFQKYSWCCHLEEVFRKVQQSFETPRAKAQMPTIERLSMTRYFYLFPGN
notes: Construct and tag not described

B2: Nod2 lacking the LRRs (Nod2 1-744) (other)
chain: MGEEGGSASHDEEERASVLLGHSPGCEMCSQEAFQAQRSQLVELLVSGSLEGFESVLDWLLSWEVLSWEDYEGFHLLGQPLSHLARRLLDTVWNKGTWACQKLIAAAQEAQADSQSPKLHGCWDPHSLHPARDLQSHRPAIVRRLHSHVENMLDLAWERGFVSQYECDEIRLPIFTPSQRARRLLDLATVKANGLAAFLLQHVQELPVPLALPLEAATCKKYMAKLRTTVSAQSRFLSTYDGAETLCLEDIYTENVLEVWADVGMAGPPQKSPATLGLEELFSTPGHLNDDADTVLVVGEAGSGKSTLLQRLHLLWAAGQDFQEFLFVFPFSCRQLQCMAKPLSVRTLLFEHCCWPDVGQEDIFQLLLDHPDRVLLTFDGFDEFKFRFTDRERHCSPTDPTSVQTLLFNLLQGNLLKNARKVVTSRPAAVSAFLRKYIRTEFNLKGFSEQGIELYLRKRHHEPGVADRLIRLLQETSALHGLCHLPVFSWMVSKCHQELLLQEGGSPKTTTDMYLLILQHFLLHATPPDSASQGLGPSLLRGRLPTLLHLGRLALWGLGMCCYVFSAQQLQAAQVSPDDISLGFLVRAKGVVPGSTAPLEFLHITFQCFFAAFYLALSADVPPALLRHLFNCGRPGNSPMARLLPTMCIQASEGKDSSVAALLQKAEPHNLQITAAFLAGLLSREHWGLLAECQTSEKALLRHQACARWCLARSLRKHFHSIPPAAPGEAKSVHAMPGFIWLIR
notes: also called Nod2ΔLRR
- binding result [1]: binds

- binding result (HA-tagged wild-type Nod2): no binding
B3: procaspase-9 (enzyme, UniProt P55211 1-416, looked up)
chain: MDEADRRLLRRCRLRLVEELQVDQLWDALLSRELFRPHMIEDIQRAGSGSRRDQARQLIIDLETRGSQALPLFISCLEDTGQDMLASFLRTNRQAAKLSKPTLENLTPVVLRPEIRKPEVLRPETPRPVDIGSGGFGDVGALESLRGNADLAYILSMEPCGHCLIINNVNFCRESGLRTRTGSNIDCEKLRRRFSSLHFMVEVKGDLTAKKMVLALLELAQQDHGALDCCVVVILSHGCQASHLQFPGAVYGTDGCPVSVEKIVNIFNGTSCPSLGGKPKLFFIQACGGEQKDHGFEVASTSPEDESPGSNPEPDATPFQEGLRTFDQLDAISSLPTPSDIFVSYSTFPGFVSWRDPKSGSWYVETLDDIFEQWAHSEDLQSLLLRVANAVSVKGIYKQMPGCFNFLRKKLFFKTS
notes: as for B1

- binding result (HA-tagged wild-type Nod2): no binding
B4: Bcl-10 (other, UniProt O95999 1-233, looked up)
chain: MEPTAPSLTEEDLTEVKKDALENLRVYLCEKIIAERHFDHLRAKKILSREDTEEISCRTSSRKRAGKLLDYLQENPKGLDTLVESIRREKTQNFLIQKITDEVLKLRNIKLEHLKGLKCSSCEPFPDGATNNLSRSNSDESNFSEKLRASTVMYHPEGESSTTPFFSTNSSLNLPVLEVGRTENTIFSSTTLPRPGDPGAPPLPPDLQLEEEGTCANSSEMFLPLRSRTVSRQ
notes: as for B1
